Test results reported in article doi:10.1101/2020.06.01.127969.

Target: RNA polymerase II with SNAP-tagged Rpb1 labelled with SNAP-Surface 549 (Rpb1^SNAP549) (S. cerevisiae) (UniProt P04050)
Assay: CoSMoS

UniProt P04050, sequence (P04050 whole entry, looked up): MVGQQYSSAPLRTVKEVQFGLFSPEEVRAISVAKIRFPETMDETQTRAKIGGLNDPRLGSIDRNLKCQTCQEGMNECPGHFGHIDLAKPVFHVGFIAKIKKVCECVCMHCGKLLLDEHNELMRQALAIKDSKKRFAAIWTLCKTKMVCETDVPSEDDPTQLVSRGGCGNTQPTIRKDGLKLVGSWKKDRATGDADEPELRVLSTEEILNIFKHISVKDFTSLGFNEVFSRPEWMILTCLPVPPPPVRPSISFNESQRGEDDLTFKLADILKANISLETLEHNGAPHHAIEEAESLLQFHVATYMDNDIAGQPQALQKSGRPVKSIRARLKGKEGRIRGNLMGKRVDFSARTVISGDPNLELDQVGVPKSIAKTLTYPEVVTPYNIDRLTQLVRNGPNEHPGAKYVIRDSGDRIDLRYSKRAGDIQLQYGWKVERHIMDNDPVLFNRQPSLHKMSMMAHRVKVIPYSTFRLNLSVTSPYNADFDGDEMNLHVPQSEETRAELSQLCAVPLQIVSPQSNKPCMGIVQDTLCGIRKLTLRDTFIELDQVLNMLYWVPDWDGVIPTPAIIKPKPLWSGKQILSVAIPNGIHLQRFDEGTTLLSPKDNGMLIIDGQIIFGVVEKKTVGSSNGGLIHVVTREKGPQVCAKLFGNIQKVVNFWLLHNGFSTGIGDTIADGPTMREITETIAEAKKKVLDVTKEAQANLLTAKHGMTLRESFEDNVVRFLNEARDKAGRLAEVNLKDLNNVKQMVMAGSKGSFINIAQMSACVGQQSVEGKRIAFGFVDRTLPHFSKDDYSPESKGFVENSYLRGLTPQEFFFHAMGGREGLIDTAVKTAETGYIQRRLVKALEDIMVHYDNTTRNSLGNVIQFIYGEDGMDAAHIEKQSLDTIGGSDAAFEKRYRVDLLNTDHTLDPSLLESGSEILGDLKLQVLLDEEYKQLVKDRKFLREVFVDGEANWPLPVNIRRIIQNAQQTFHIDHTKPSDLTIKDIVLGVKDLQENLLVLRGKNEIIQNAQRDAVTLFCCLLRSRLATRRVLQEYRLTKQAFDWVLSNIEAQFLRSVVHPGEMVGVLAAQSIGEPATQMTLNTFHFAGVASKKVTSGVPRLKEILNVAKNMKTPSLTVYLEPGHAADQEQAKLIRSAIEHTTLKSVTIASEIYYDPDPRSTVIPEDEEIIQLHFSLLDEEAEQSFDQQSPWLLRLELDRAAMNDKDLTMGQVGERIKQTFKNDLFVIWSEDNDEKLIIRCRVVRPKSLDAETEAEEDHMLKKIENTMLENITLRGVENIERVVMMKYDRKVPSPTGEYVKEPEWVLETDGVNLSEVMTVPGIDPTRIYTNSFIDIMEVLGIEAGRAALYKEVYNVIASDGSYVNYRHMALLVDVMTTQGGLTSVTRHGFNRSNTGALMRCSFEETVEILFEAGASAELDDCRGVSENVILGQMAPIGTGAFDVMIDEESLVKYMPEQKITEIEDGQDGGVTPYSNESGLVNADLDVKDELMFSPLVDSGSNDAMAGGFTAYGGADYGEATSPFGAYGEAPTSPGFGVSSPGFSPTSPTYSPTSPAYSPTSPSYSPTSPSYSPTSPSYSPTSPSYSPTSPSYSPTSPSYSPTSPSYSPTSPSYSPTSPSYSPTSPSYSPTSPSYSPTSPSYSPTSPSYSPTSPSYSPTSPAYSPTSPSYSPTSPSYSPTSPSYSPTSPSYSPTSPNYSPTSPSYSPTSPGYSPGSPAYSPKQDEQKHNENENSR

1/k-5 (average time to dissociate from elongation complexes): 56 s
frequency of association with a DNA containing Rpb1^SNAP549, with added NTPs: 0.0094 s⁻¹
kapp = k-5 + k6 (aggregate dissociation rate constant, pooled events): 0.021 s⁻¹
kapp,prior (only events in which Spt4/5 left before RNApII): 0.021 s⁻¹
kapp,simul (only events in which Spt4/5 and RNApII left simultaneously): 0.018 s⁻¹
B1: elongation factor Spt4/5 with DHFR-tagged Spt5 labelled with Cy5-TMP (Spt5^DHFR-Cy5) (complex)
chain 1: MSDNSDTNVSMQDHDQQFADPVVVPQSTDTKDENTSDKDTVDSGNVTTTESTERAESTSNIPPLDGEEKEAKSEPQQPEDNAETAATEQVSSSNGPATDDAQATLNTDSSEANEIVKKEEGSDERKRPREEDTKNSDGDTKDEGDNKDEDDDEDDDDDDDDEDDDDEAPTKRRRQERNRFLDIEAEVSDDEDEDEDEEDSELVREGFITHGDDEDDEASAPGARRDDRLHRQLDQDLNKTSEEDAQRLAKELRERYGRSSSKQYRAAAQDGYVPQRFLLPSVDTATIWGVRCRPGKEKELIRKLLKKKFNLDRAMGKKKLKILSIFQRDNYTGRIYIEAPKQSVIEKFCNGVPDIYISQKLLIPVQELPLLLKPNKSDDVALEEGSYVRIKRGIYKGDLAMVDQISENNLEVMLKIVPRLDYGKFDEIDPTTQQRKSRRPTFAHRAPPQLFNPTMALRLDQANLYKRDDRHFTYKNEDYIDGYLYKSFRIQHVETKNIQPTVEELARFGSKEGAVDLTSVSQSIKKAQAAKVTFQPGDRIEVLNGEQRGSKGIVTRTTKDIATIKLNGFTTPLEFPISTLRKIFEPGDHVTVINGEHQGDAGLVLMVEQGQVTFMSTQTSREVTITANNLSKSIDTTATSSEYALHDIVELSAKNVACIIQAGHDIFKVIDETGKVSTITKGSILSKINTARARVSSVDANGNEIKIGDTIVEKVGSRREGQVLYIQTQQIFVVSKKIVENAGVFVVNPSNVEAVASKDNMLSNKMDLSKMNPEIISKMGPPSSKTFQQPIQSRGGREVALGKTVRIRSAGYKGQLGIVKDVNGDKATVELHSKNKHITIDKHKLTYYNREGGEGITYDELVNRRGRVPQARMGPSYVSAPRNMATGGIAAGAAATSSGLSGGMTPGWSSFDGGKTPAVNAHGGSGGGGVSSWGGASTWGGQGNGGASAWGGAGGGASAWGGQGTGATSTWGGASAWGNKSSWGGASTWASGGESNGAMSTWGGTGDRSAYGGASTWGGNNNNKSTRDGGASAWGNQDDGNRSAWNNQGNKSNYGGNSTWGGH
chain 2: MSSERACMLCGIVQTTNEFNRDGCPNCQGIFEEAGVSTMECTSPSFEGLVGMCKPTKSWVAKWLSVDHSIAGMYAIKVDGRLPAEVVELLPHYKPRDGSQVE
modifications: Cy5-trimethoprim (Cy5-TMP) bound non-covalently to the DHFR tag
